Common to all, as to settings: both partners purified
The target of assay [1] is NiV-G head domain (crystallisation construct, deglycosylated) (Nipah virus, NP_112027 / Q9IH62 …). Description: crystal structure.
The target of assay [2] is deglycosylated NiV-G (N-linked glycans removed with PNGase F) (Nipah virus, Bangladesh isolate …, UniProt Q4VCP5, strain, N-linked glycans removed with PNGase F). Description: SPR; Biacore T200; antibody (0.5 μg/mL in HBS-EP+) […]; association 120 s, dissociation 900 s. For orientation: Surface plasmon resonance follows binding to a sensor surface in real time, without labels.

For assay [3], the target named is T1, HeV-G (wild-type Hendra virus attachment glycoprotein G, soluble recombinant) (Hendra virus, UniProt O89343).
T1 construct: source: Expi-293F, purified (StrepTrap HP)
The experiment in a line: SPR.

B1: 14F8 Fab (Fab, V domains shown)
VH: QVQLKESGPGLVAPSQSLSITCTVSGFSLTSYDISWIRQPPGKGLEWLGVIWTGGVTNYNSAFLSRLSISKDNSKSQVFLKMNSLQTDDTAIYYCVREGDWFFDVWGAGTTVTVSS
VL: DVLMTQTPLSLPVSLGDQASISCRSSQSIVHSNGNTYLEWYLQKPGQSPQLLIYKVSNRFSGVPDRFSGSGSGTDFTLKINRVEAEDLGLYYCFQASHVPYTFGGGTKLEIK
notes: also called 14F8 Fab fragment
Consider B1, for which, in assay [1], the binding result is listed as “binds”.

B2: chimeric antibody 14F8 (variable regions of mouse m14F8 on a human IgG1 constant region backbone) (antibody, V domains shown)
VH: QVQLKESGPGLVAPSQSLSITCTVSGFSLTSYDISWIRQPPGKGLEWLGVIWTGGVTNYNSAFLSRLSISKDNSKSQVFLKMNSLQTDDTAIYYCVREGDWFFDVWGAGTTVTVSS
VL: DVLMTQTPLSLPVSLGDQASISCRSSQSIVHSNGNTYLEWYLQKPGQSPQLLIYKVSNRFSGVPDRFSGSGSGTDFTLKINRVEAEDLGLYYCFQASHVPYTFGGGTKLEIK
notes: also called Humanized 14F8; m14F8 (mouse parent)
For B2, the binding result is given as “binds” in assay [2] and “no binding (tested: 100 nM)” in assay [3].
